Results published in the RNAGym collection of RNA variant scans (doi:10.7554/elife.80360).

B1: Twister Ribozyme (parent)
chain: AACACUGCCAAUGCCGGUCCCAAGCCCGGAUAAAAGUGGAGGGGGCGG

Variants of: B1
Test: self-cleavage, relative activity (ratio to wild type); higher = more cleavage; co-transcriptional

Row | Variant | self-cleavage
1 | A10G C27U | 1.01
2 | C9G G47C | 0.186
3 | C9G G47A | 0.38
4 | C9G G47U | 0.278
5 | C9A A33U | 0.638
6 | C9A A33G | 0.522
7 | C9U C46G | 0.651
8 | C9U C46A | 0.549
9 | C9U G42U | 0.102
10 | C9U G42C | 0.193
11 | C9U G45U | 0.328
12 | C9U G45A | 0.547
13 | C9U C14G | 0.0927
14 | C9G U12C | 0.812
15 | C9G U12G | 0.492
16 | C9G A32U | 0.517
17 | C9G G16C | 0.0741
18 | C9G G16A | 0.329
19 | C9G G43C | 0.132
20 | C9G G43A | 0.123
21 | C8U G17U | 0.0946
22 | C8U G17C | 0.0682
23 | C8U G17A | 0.119
24 | C8U C21A | 0.0385

Row | Variant | self-cleavage
25 | A10C C26U | 0.508
26 | A10G C20A | 0.136
27 | A10G C20U | 0.878
28 | A10G C20G | 0.183
29 | C8U C26G | 0.0721
30 | C8U C26U | 0.061
31 | C9U | 0.754
32 | C9G | 0.733
33 | C9A | 0.776
34 | A10C G24C | 0.0859
35 | C9A G17C | 0.0631
36 | C9A G17U | 0.0549
37 | C9G G17U | 0.0981
38 | C9G G17C | 0.0619
39 | C9U A32G | 0.729
40 | A10C G39U | 0.148
41 | C9U G28C | 0.549
42 | C8U C46U | 0.726
43 | C8U C46G | 0.567
44 | C8U C46A | 0.5
45 | C8U G38U | 0.481
46 | C8U G38A | 0.572
47 | C8U A40U | 0.17
48 | C8U A40C | 0.202

Row | Variant | self-cleavage
49 | A10G A33G | 1.04
50 | C9G C25G | 0.0708
51 | C9G C25U | 0.194
52 | C9G C25A | 0.0478
53 | C9A A35G | 0.548
54 | C9A A35C | 0.66
55 | C9A A35U | 0.628
56 | C9G G41U | 0.122
57 | C9G G41C | 0.145
58 | A10G A23C | 0.714
59 | A10G A23G | 0.879
60 | C9U G47C | 0.235
61 | C9U C27A | 0.064
62 | A10C G44U | 0.859
63 | C9A C15U | 0.567
64 | C9A C15A | 0.35
65 | C8U G39C | 0.147
66 | A10C G38A | 0.947
67 | C9U A23C | 0.0976
68 | A10C C19G | 0.309
69 | C9A A34G | 0.501
70 | C9A A34U | 0.535
71 | A10C U18C | 0.787
72 | C9A A40G | 0.129

Row | Variant | self-cleavage
73 | C9U C21G | 0.0888
74 | C9U C21U | 0.0907
75 | C9A A22C | 0.642
76 | C9A A22U | 0.259
77 | C9A A22G | 0.101
78 | C9G A22U | 0.187
79 | C9G A22C | 0.708
80 | C9G A22G | 0.0988
81 | C8U U18A | 0.0657
82 | C9G G45U | 0.205
83 | C9G G45C | 0.171
84 | C9G A11C | 0.764
85 | C9U G36A | 0.281
86 | C9U G36U | 0.164
87 | C8U A32U | 0.515
88 | C8U A32G | 0.385
89 | C9U A35G | 0.615
90 | C9U A35C | 0.636
91 | A10G C46A | 0.939
92 | C9A G28C | 0.636
93 | C9A G28U | 0.53
94 | C9A G28A | 0.598
95 | C9G G13U | 0.933
96 | C9G G13C | 0.876

Row | Variant | self-cleavage
97 | C9G G13A | 1.07
98 | A10C U31G | 0.737
99 | A10C A23C | 0.242
100 | A10C A23U | 0.664
101 | C8U A23U | 0.078
102 | C8U A23G | 0.107
103 | C9G A34U | 0.47
104 | A10G C15G | 0.136
105 | A10G C15A | 0.707
106 | C8U U12C | 0.753
107 | C8U U12A | 0.825
108 | A10G C25G | 0.409
109 | C9U A34U | 0.477
110 | C9U A34G | 0.3
111 | C9U G41A | 0.121
112 | C9U G41U | 0.187
113 | A10C G45U | 0.842
114 | C8U G13U | 0.103
115 | C9U A33U | 0.751
116 | C9U A33C | 0.601
117 | C9U A33G | 0.548
118 | A10C A35G | 0.965
119 | C9G G42A | 0.12
120 | C9G G42C | 0.199

Row | Variant | self-cleavage
121 | C9A G45A | 0.41
122 | C9A G45C | 0.131
123 | C8U G42C | 0.217
124 | C9U G13U | 0.826
125 | C9A G41C | 0.123
126 | C9A G41A | 0.145
127 | C9A C26U | 0.06
128 | A10C C25A | 0.0743
129 | A10C C25G | 0.31
130 | A10C C25U | 0.782
131 | C8U G29C | 0.117
132 | A10G A40G | 0.185
133 | A10G A40U | 0.157
134 | A10G A40C | 0.46
135 | C8U U37C | 0.284
136 | C8U U37A | 0.307
137 | C9U G24C | 0.0718
138 | C9U G24A | 0.0648
139 | C9G G44C | 0.395
140 | C9G A23G | 0.0809
141 | C9G A23U | 0.0839
142 | A10C C20G | 0.0778
143 | A10C C20U | 0.941
144 | C9U G29U | 0.606

Row | Variant | self-cleavage
145 | C9U G29C | 0.242
146 | C9G G36C | 0.148
147 | C9G G36U | 0.137
148 | A10C G28C | 0.822
149 | A10C G28A | 0.841
150 | A10C G13U | 0.677
151 | A10C A33C | 1.14
152 | C9G C46G | 0.576
153 | C8U G47A | 0.43
154 | C8U G47U | 0.345
155 | C8U G47C | 0.199
156 | C9U C15A | 0.22
157 | C9U C15U | 0.594
158 | C8U G41U | 0.117
159 | C8U G41C | 0.0951
160 | C9U A11C | 0.736
161 | C8U G48A | 0.45
162 | C8U G48C | 0.652
163 | A10G A22C | 0.818
164 | A10G A22U | 0.971
165 | A10G A22G | 0.268
166 | C9A C19G | 0.0837
167 | C9A C19A | 0.089
